From the supplement of paper PMC12042874
± gives the uncertainty stated by the source.

Assay: amyloid nucleation score (Sup35N fusion, yeast selection) (log enrichment); library NNK2; higher = more nucleation; inactive = no reads after selection
Procedure, shortened: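 Yeast lacking psi expressed peptides of 20 random codons fused to Sup35N, received 100 μM copper sulfate for 24 hours, and were then grown for 7 days at 30°C on medium lacking adenine and uracil. Illumina sequencing of input and output plasmid inserts provided the reads. Nucleation scores are DiMSum log enrichments of output over input, centred on the mode of non-aggregating sequences. Any sequence with under 100 input reads was excluded.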

Substance | amyloid nucleation score
AGYDATW | 0.461 ± 0.65
AGYIVIALSRCCTDSRPNRV | inactive
AHSKHPGTYGQFMSEQSGEA | 0.767 ± 0.51
AIITLYSNHKLYLWALLLDA | -0.47 ± 1.1
AIKESRCDIVIRRKWSSLKT | -0.02 ± 1.1
AILSNVEVLYTRFRIKSCKL | -0.435 ± 0.34
AIRADTDFDYTIEGSVDGGG | -0.199 ± 0.63
AIRRYIVKAPLLCES | 1.75 ± 0.47
AIRVLCKEYSQSDRMNEWLN | inactive
AISILNCSMMLRIWPSTAAL | 0.059 ± 0.5
AISLYMFVRDIAKSILRQVC | 0.269 ± 0.5
AISPVGYCDSTFVFSTSLCG | 4.13 ± 0.12
AKFMGLCRDKGLQLC | -0.331 ± 0.55
AKPRYN | 0.221 ± 0.42
AKVACKDGLHACESESGFIW | 1.54 ± 0.3
AKVNCISIITEDILILSEMV | inactive
ALCGCPCRKPSATVINLPLF | 0.165 ± 0.37
ALDFSRSRDKGG | 1.42 ± 0.23
ALERWS | 0.024 ± 0.74
ALFIRVYMLFRRCEECSLQV | 7.575 ± 0.055
ALGSRSTDSGSWITNFLSSR | -0.213 ± 0.79
ALGVGVDFVKVWRNRGLAGG | 0.459 ± 0.51
ALMEKSTSNLLFCHLDCASD | 3.24 ± 0.071
ALMHTNGTV | -0.406 ± 1.1
ALMNPHFFSWCLKMVGYGYR | inactive

Substance | amyloid nucleation score
ALNYVSCWNALRKFRESVAH | inactive
ALPVLIINERTRWGVTLLLP | 0.421 ± 0.39
ALRVLFLVVWSEHDDCYCGG | 0.665 ± 0.42
ALSSFT | -1.28 ± 0.78
ALTPGYPSGARVP | 0.307 ± 0.49
ALWFLLKQSGARYLDLAIPG | -0.06 ± 1.1
AMLDLRINTSRAGSHSRVVT | 2.81 ± 0.069
AMQLCSFTPFSTYNFLSYDS | -0.685 ± 0.37
AMSFGCSAWYTSYRDMFCRG | 3.17 ± 0.15
ANFQIFDLLME | -0.061 ± 0.43
ANLLKTRRVMYRGFG | 0.611 ± 0.38
ANMCELVLLELVIELRGGLA | 3.28 ± 0.088
ANMCPYAHRVTGVMFCLLPW | inactive
ANNVSGIIVCTNFDILMYGR | 7.791 ± 0.042
ANSVNRSKDCTYFVFHRF | 5.436 ± 0.054
ANWPR | -0.391 ± 0.79
APANVRWLNFSGLDSNGCPY | inactive
APHGLRKHSIMVAGMLRSVG | 2.68 ± 0.14
APSVLGAYQIHRGRVHVLSA | 0.494 ± 0.29
APTCSKCCIFMQC | 5.99 ± 0.072
AQNYYMY | 6.88 ± 0.087
AQWSRIDCNTLCKAVPISLA | 5.773 ± 0.056
ARFSKHHLTKVLFGKDYQAP | 0.235 ± 0.34
ARKCDLFYTFFCTNIFSSVG | 4.798 ± 0.039
ARLVYQLATRTCCFSQ | -0.032 ± 1.1

Substance | amyloid nucleation score
ARMRFKRRKCCNAIWVRSSV | 0.398 ± 0.3
ARNSGWTATSSVYPLKTPAT | 1.37 ± 0.42
ARNYGRTWHTSEESWYFGEV | 5.8 ± 0.081
ARVRTMSVRFPVLSVVCYKL | 3.69 ± 0.057
ARYAVDTSITNECSLALYTS | 1.23 ± 0.24
ARYISCRKEFRYLESA | 0.069 ± 0.37
ASAAYWASVHICPNLSKRKL | 0.328 ± 0.65
ASAVV | 0.402 ± 0.26
ASDPIMTVSRPIPMHPLY | -0.172 ± 0.76
ASDVSRVGVGRKMIFSFVRL | -0.031 ± 1
ASFCNVWGDNVWRYTLLRFK | inactive
ASGCLNLVCQNVCTSRSTNV | 8.954 ± 0.067
ASHMRSDSAL | inactive
ASLGPRFTDRTVQSHVNTRC | 0.147 ± 0.41
ASLSAFWSLTIVRVLPDKQV | 0.722 ± 0.43
ASLTASAGVVFFYTPTRRYN | 3.16 ± 0.14
ASMCIGRWIFGEYYSFNMFI | 0.775 ± 0.38
ASSMILL | -1.18 ± 0.64
ASVRENFYIGLCRKCYYHNP | 1.59 ± 0.16
ASYLCFPNNVVLSLHNHVFS | 4.834 ± 0.048
ATGSYSMITLDIFQSNCSDA | 3.51 ± 0.053
ATRGHIWDCSFGADYQCIPS | 5.97 ± 0.063
AVDAVGSLMKRALRLRSMFG | 1.12 ± 0.44
AVFRLFASVPGFNRRPGLEQ | 0.314 ± 0.25
AVGYVMLMEMEALPISMWRG | 7.027 ± 0.054

Substance | amyloid nucleation score
AVICVSSRIQFMWMLGGDGT | 5.693 ± 0.045
AVLLPNWSAYSGKNTSYVPV | 2.13 ± 0.1
AVPNLGSVPYVVDLMI | 0.907 ± 0.29
AVRTLDNMGLYAWISAKVCR | -0.184 ± 0.79
AVSTMGIVSIVF | inactive
AVWAEEGMPLMLGACRRTWG | 1.25 ± 0.26
AWDDL | 0.154 ± 0.45
AWRGFTSIGAYYAQFGLGVA | 0.431 ± 0.36
AWVWFS | -0.845 ± 1.1
AYCRGFYYIIALVSSPEQKR | 0.175 ± 0.34
AYDIHTIREMFRSSSRLYGW | 5.854 ± 0.033
AYFRLWVRAWTLASGE | 0.938 ± 0.2
AYHTMGGWLRVAG | 0.005 ± 1
AYMSYRAGMDRLQCDVS | -0.947 ± 1.1
AYMVASMESMDACRVLRLPS | 0.87 ± 0.21
AYMVEWEENHSESSVA | -0.383 ± 1
AYYALCL | -0.92 ± 1.1
CAISM | 4.271 ± 0.039
CAPVCFFRGSLRCRSRLTWR | -0.221 ± 1.1
CAPYTVLGYGLGTQFHAGEN | 1.8 ± 0.1
CARMGASLWI | 0.214 ± 0.65
CASWLVCMFRGMFRVLNTSG | 2.82 ± 0.17
CAVVRGLTVKAVL | -0.64 ± 0.76
CCFRKWSSTAHRRFPCWREL | 0.255 ± 0.54
CCIFWYCRADAINNCLARFD | 7.154 ± 0.041

Substance | amyloid nucleation score
CCKITDMAPNPVETWKYSKR | 0.786 ± 0.27
CCLTPYAIICLLARLNHTKV | -0.273 ± 0.61
CCNIGHNVMNY | 2.9 ± 0.11
CCYQVSYCIVSVIDSVEYGP | 6.991 ± 0.033
CCYVHWILGAGDREGRLWRQ | 3.86 ± 0.13
CDGSGCTDFVVCLHK | -0.195 ± 0.31
CDSRCRYLAEYRFI | 0.151 ± 0.27
CDTLTRRFVRCNVWFQCKR | 3.96 ± 0.056
CDVLRY | -0.825 ± 0.48
CECVFFVQGVLRVGVLYDKF | inactive
CEEAVSIGLKGYEHVEKSAP | -0.313 ± 0.76
CEWHYRRGFMMIGVMWNAVF | 0.427 ± 0.36
CFCPMLLLYIVRP | 7.483 ± 0.023
CFKFRYRLGGW | 4.93 ± 0.05
CFLCMQSLS | 1.34 ± 0.33
CFVIGLSMNLGHAGHKVWMT | 4.75 ± 0.086
CFVRTVFL | inactive
CGELY | 0.506 ± 0.66
CGFHYFFRSTGYMAVAIIIR | inactive
CGGAGRMLWGLADSNAALEA | 0.163 ± 0.63
CGMKTRQYCTMSRYVGRYVR | 0.231 ± 0.24
CGRTDNWGNDRNASRRHGGL | 0.694 ± 0.24
CGTGARVCYCYGFKLSSARG | 0.965 ± 0.6
CGYLSNRSDNRCDLLYACFR | 0.571 ± 0.36
CHGSCSYETSVVCYMWSGKG | 3.21 ± 0.14

Substance | amyloid nucleation score
CHHTAYPMANFWQWLKGAMS | 0.069 ± 0.35
CHLKFNANVKWLGSLGKLEY | 4.74 ± 0.069
CHMDFERFRWLKFSLFCSLH | -0.562 ± 1.1
CHTTMPGIVCKLGTYARGEG | 6.638 ± 0.066
CIMRGREQDFWQSDY | 0.116 ± 0.23
CIQIAIYGWFTDTTIRG | 6.48 ± 0.03
CITLRYYMDVRLSLHMKRTW | 0.988 ± 0.53
CIVAFEFLYWCRRIAFNPGG | -0.475 ± 0.31
CKCSAAIDVRDYVS | -0.02 ± 1.1
CKHDCETWWCSY | 3.48 ± 0.058
CKLPDVTIMDYLLPFM | -0.333 ± 0.41
CKSEYIWYPKFAMGSFDPSQ | inactive
CLDPLAMSN | inactive
CLLVEHNMLWWWSCCIGCWK | 0.635 ± 0.37
CLMDTGVFREYCS | -0.585 ± 0.26
CLRSCRPYSQTIINVA | 6.16 ± 0.062
CMFFCYYLWMMRMVWSVTWS | -0.589 ± 0.53
CMFGEEFGLNKNVVGSLGLY | inactive
CMFLFYVKYLNVHSGGLIML | inactive
CMFWSHYTIRFSSWWLGGCE | -0.149 ± 0.79
CMIIKGCTVWVVRP | 9.469 ± 0.055
CMLEIVLLEDFQG | -0.632 ± 0.32
CMNSSDLECPMGDCVCVVLN | 2.82 ± 0.1
CMQTSDEPLRHGP | -0.06 ± 0.79
CMQVYTVEYTGFCCATRARK | 5.09 ± 0.066

Substance | amyloid nucleation score
CMRVVDGCFYFLDWSGVTDF | -1.55 ± 1.1
CMSAIFLPMIEF | -0.714 ± 0.44
CMSSDIYFLVFTESEIVSLC | -0.42 ± 0.76
CMTGNYYQP | inactive
CNCVARYGEVKEGIHVAFDY | -0.529 ± 0.76
CNFLQDNVEGVCYNRFKDCL | 0.601 ± 0.49
CNFYCPRDPQSSIVSYTMSY | -0.159 ± 1
CNGFVWLFSVGYFNNRFMWF | inactive
CNGSRVKDFRCRFRWNGLGL | -0.889 ± 0.41
CNMFDCCK | 0.175 ± 0.42
CNNSVGVFYKGLTELLCLRS | -0.986 ± 1.1
CNRVHYFFCFSCLWMFVFID | -2.07 ± 1.1
CNTDDWK | 0.496 ± 0.66
CPCSRCLVDNKVRL | -0.41 ± 0.45
CPLEAYLD | inactive
CPRPTCAPHCWYFVLAMVAR | -0.4 ± 0.64
CPSWSSLLISPYYYSSVSHK | -0.443 ± 0.79
CPTNIRP | -1.18 ± 0.63
CPVFGSIGGLISNSWYVTLM | 5.335 ± 0.046
